Biological target: glutathione S-transferase (GST) fused to the C-terminus of SERT
Test: GST pull-down, immunoblot densitometry
Conditions: whole-cell lysates of transfected HEK-293 cells; n = 3; parent: est. 3.1; read off a plot

- response: 2.1 a.u.
Substance: YFP-tagged human MAD2, wild type (from UniProt Q13257) R133A

— PMC10561363
